Source: patent US20250297020A1 (ADALTA, published 2025)
“And” between values parts separate entries of the source, which are not always exact repeats. Identical values can stand only once.

What was measured:
[1] = target: T1, human RANK-L (Receptor Activator of Nuclear factor Kappa B Ligand), recombinant (human, UniProt O14788 140-317, limits assumed); assay: cell-based or functional assay
T1 sequence (looked up): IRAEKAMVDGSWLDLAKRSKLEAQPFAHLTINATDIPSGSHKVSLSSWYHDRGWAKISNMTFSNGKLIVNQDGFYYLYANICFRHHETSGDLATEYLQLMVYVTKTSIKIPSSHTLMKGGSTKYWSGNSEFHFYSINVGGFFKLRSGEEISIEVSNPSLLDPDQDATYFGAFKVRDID

[2] = target: T1, human RANK-L (Receptor Activator of …); assay: SPR (Biacore), human RANK-L immobilised on the chip, ADR03 injected
Experimental: (§1) Measurement of the kinetics of ADR03 binding to human RANK-L was carried out by immobilising human RANKL onto a research grade CMS sensor chip using standard amine coupling. Each of three surfaces is first activated for seven minutes using a 1:1 mixture of […] N-hydroxysuccinimide (NHS) and […] 1-ethyl-3-(3-dimethylaminopropyl)-carbodimide (EDC). Then, the RANK-L sample is diluted 1- to 50-fold in 10 mM sodium acetate, pH 4.0, and exposed to the activated chip surface for different lengths of time (ten seconds to two minutes) to create three different density surfaces of RANK-L. Each surface is then blocked with a seven-minute injection of 1 M ethanolamine, pH 8.2. RANK-L is diluted 100-fold and injected for different amounts of time to be captured at three different surface densities (60 RU, 45 RU, 12 RU; Response Unit (RU) is termed by Biacore and relates to target molecule per surface area) onto a streptavidin-containing sensor chip. The experiments can be performed on a Biacore® 2000 or T100 optical biosensor. ADR03 is supplied at approximately 100 μg/mL and tested in a 3-fold dilution series in Sample Running Buffer over the three RANK-L surfaces. Each of ADR03 concentrations (five, 3-fold dilutions of RANK-L-coupled sensors) is tested three times to assess reproducibility of the assay. Each test is injected at a flow rate of 100 μL/minute for 60 seconds, followed by a three-minute dissociation phase. Bound ADR03 can then be removed using a five-second pulse with sensor regeneration solution. All data is usually collected at a temperature-controlled 20° c. The kinetic responses for the ADR03 injections can be analyzed using the non-linear least squares analysis program CLAMP (Myszka, D. G. and Morton, T. A. (1998) Trends Biochem. Sci., 23: 149-150). Calculations of multivalent interactions can be determined using a model to fit the avidity of the bivalent interaction of ADR03 with RANK-L (Drake et al. (2004) Anal. Biochem., 328: 35-43; and Muller et al., (1998) Anal. Biochem. 261: 149-158).

[3] = target: T1, human RANK-L (Receptor Activator of …); assay: SPR (Biacore) sensorgrams with fitted curves; panel headed "pAb+RANKL"; value from the column "KD" of the table drawn in the panel
Experimental: as §1, with “The experiments can be performed on a Biacore® 2000 or T100 optical biosensor. ADR03 is supplied at approximately 100 μg/mL and tested in a 3-fold dilution series in Sample Running Buffer over the three RANK-L surfaces. Each of ADR03 concentrations (five, 3-fold dilutions of RANK-L-coupled sensors) is tested three times to assess reproducibility of the assay. Each test is injected at a flow rate of 100 μL/minute for 60 seconds, followed by a three-minute dissociation phase. Bound ADR03 can then be removed using a five-second pulse with sensor regeneration solution. All data is usually collected at a temperature-controlled 20° c.” left out

IC50 of inhibition of hRANK-L-induced production of TRAP positive multinucleated cells (RAW264.7) [1]: 100 ng/mL and 3 nM
Kd [2]: 13.2 nM
koff [2]: 0.00029 s⁻¹
kon [2]: ~23000 M⁻¹ s⁻¹
Kd [3]: 13.2 nM
B1: ADR03 i-body (RANK-L binding i-body on the NCAM domain 1 scaffold) (designed binder)
chain: LQVDIVPSQGEISVGESKFFLCQVAGAHTVESISWFSPNGEKLTPNQQRISVVWNDDSSSTLTIYNANIDDAGIYKCVVVASARRGFGWVYPHEATVNVKIFQ
notes: I-bodies were expressed in E. coli with FLAG or penta-His tags; also called ADR3; i-body ADR03
